Experimental data: the RNAGym collection of RNA variant scans (doi:10.1073/pnas.2313332121)

B1: TPR t1 (parent)
chain: GACCAAUCUGCCCUCAGAGCUCGAGAACAUCUUCGGAUGCAGAGGAGGCAGGCUUCGGUGGCGCGAUAGCGCCAACGUCCUCAACCUCCAAUGCAUCCCACCACAUGAUGAUGCCUGAAGAGCCUUGGUUUUUUG

Variants of: B1
Assay: polymerase ribozyme fitness, log enrichment relative to wild type (log ratio); higher = more active; in vitro selection for triplet polymerase activity
Summary of the method: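 A heterodimeric triplet polymerase ribozyme had each of its subunits mutagenized by PCR into a library, which was transcribed. One round of in vitro selection, done in triplicate, annealed each library with a biotinylated primer, its partner subunit and triplets, then incubated it frozen at −7 °C before gel excision of extended constructs, streptavidin-bead capture and RT-PCR. Fitness is the logarithm of genotype enrichment relative to wild-type enrichment, based on Illumina sequencing of inputs and outputs and inverse-variance-weighted replicate averages. A base-2 logarithm is used, and genotypes were kept only with ≥10 input reads and ≥1 read per output.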

Variant | polymerase ribozyme fitness (log ratio)
U9C C40U U112G | 0.239
U9C C49A C123U | 1.45
U9C C53U G69C | -0.176
U9C C62U C102U | -1.87
U9C C64A A74U U112G | -6.76
U9C C70U | -0.0921
U9C C82A U109G C124U U131C | -3.57
U9C C85G | -1.02
U9C G17A A43U A50U A74C G120U | -4.05
U9C G17U C20G G25C C115U | -6.98
U9C G19A U96A A121G U132A | -1.11
U9C G19C C70U | -3.22
U9C G19U C70U | -3.94
U9C G36U C104A C115A | -1.3
U9C G39A A41C C72G A84C C86A C99A A121U | -6.53
U9C G39A A41U C73G G120U | -0.71
U9C G42C C53A U55C U130G | -1.45
U9C G45A C124U U126A U133A | -0.505
U9C G47U C49U U129A | -3.07
U9C G47U G63U | -1.41
U9C G48U G52C G117U | -2.68
U9C G52A C89A G117A | -1.63
U9C G52A C104U A121U | 2.1
U9C U14A U21C A43C G117A A119G | -1.44

Variant | polymerase ribozyme fitness (log ratio)
U9C U21A C49G C101A | -1.26
U9C U32C U109G | -6.53
U9C U54A C101U | 0.158
U9C U81A U116A G122U C124U | -0.783
U9C U125A | 0.386
U9C U133G | 0.11
U9G A16G C73G G110A U132A | -2.97
U9G A18C G117A | 0.733
U9G A18U C49A G93A G110C | -5.65
U9G A26C U54A U55A C88U G93A | -6.29
U9G A27C C98U | -4.04
U9G A37U G39A G45U A46U C94G | -5.9
U9G A41U U81C U96A | -2.65
U9G A46U G48U C76U C124U | -1.24
U9G A83G G93A C102A C123U | -2.93
U9G A95C U130A | -0.961
U9G A103U U126A G127C | -5.16
U9G A105U G113A | -5.18
U9G C11G G45C | -5.66
U9G C11U C53U U81A | -0.54
U9G C11U G35U G69U C89U | -3.13
U9G C12A G57U A111U C114A U133A | -5.59
U9G C12A U14G G63U C99A G120C | -6.39
U9G C12G G93C | -0.487

Variant | polymerase ribozyme fitness (log ratio)
U9G C12G U33A G42A C72G G93A G110U U116A | -7.22
U9G C12U C13G G47C C56U | -1.38
U9G C13G C53G C56U C86U A111U | -2.52
U9G C13U C49G C82U | -0.776
U9G C13U C73U A119G | 1.11
U9G C15A C70G A111U G117C | -5.91
U9G C15A C97U A108G G120A | -1.87
U9G C15A G58A C97U U116G U129G | -5.21
U9G C20A | -2.5
U9G C20A C22U C86U | -4.49
U9G C20A U131A | -1.99
U9G C20G G44C C72U C114G | -6.99
U9G C20U G51U C94U | -4.89
U9G C22G C101A C115U | -3.13
U9G C22G U81C | -3.31
U9G C28G A111C G122A | -4.22
U9G C28U G61U C72G U87A G122A | -1.55
U9G C34U U59A A103U | -5.76
U9G C40A C76U C114A | -2.63
U9G C40G C94U C123A U125A | -0.873
U9G C49A C104A | -1.57
U9G C53A A95C U112G | -0.929
U9G C53U A95C C115A | 0.969
U9G C56U | -0.823

Variant | polymerase ribozyme fitness (log ratio)
U9G C70U | -0.679
U9G C72G | -0.437
U9G C72G G113A G120A | -1.17
U9G C72G U87G | -0.102
U9G C72U C86A | -0.508
U9G C72U C94A G110A G113U A121G | -6.14
U9G C73U C82A A83C A118U G128A | -1.71
U9G C73U G113A | -0.47
U9G C82G | -0.102
U9G C97U A100C A108G | -2.87
U9G C99U C124A U131G | -3.14
U9G C102U G135U | -2.17
U9G G10C | 0.723
U9G G10C C11A C15A A37G C49G C85U A95U C123U | -3.19
U9G G10U | 0.261
U9G G10U C12G A111G | 0.61
U9G G10U C94U | -0.059
U9G G10U U14A C97U | -0.883
U9G G17A C56U A83U C89A C101A | -4.6
U9G G17U G60C U96C C104U G117A | -3.16
U9G G19U G44A G58C C64U A74G | -4.3
U9G G23U | -6.6
U9G G36C C56U C76U C85U A118U | -2.3
U9G G36U C70U A74U | -1.42

Variant | polymerase ribozyme fitness (log ratio)
U9G G39A | 0.968
U9G G44U G58A G60U C102U U106A U133C | -3.81
U9G G45A G93U C114A | -2.75
U9G G48A U81A C89A G93U C115G C123G | -6.43
U9G G48C G120A U130A G135U | -0.622
U9G G48U C49U G69U G120U | 0.977
U9G G48U G61U G135U | -1.68
U9G G51C | -3.27
U9G G52A U112C | 1.21
U9G G52U C70G G122A | -4.3
U9G G57A U78A A100C | -1.29
U9G G57U | -0.376
U9G G57U U96A U112A | 0.146
U9G G60A A90C | -0.347
U9G G63C C72A | -3.45
U9G G63U G120C | 0.237
U9G G65C G69C | -5.37
U9G G65U | -5.74
U9G G71U C88A C115A | -2.67
U9G G117A | 0.595
U9G U14A C31U G69U G117A G127C | -4.64
U9G U38A G47C C49A | -3.06
U9G U55A | -0.0521
U9G U59G C88A A118U | 0.424

Variant | polymerase ribozyme fitness (log ratio)
U9G U78C C89U | -0.533
U9G U87C | -0.367
U9G U87G | 0.583
U9G U92G | -1.92
G10A | 0.148
G10A A16C A50G C101A | -2.99
G10A A18C G122A C123G | -0.417
G10A A27G C31G G107C | -2.98
G10A A27G G71A C86U | -3.87
G10A A29G C62U G113A U130A | -3.56
G10A A37G G47U U59A G117U G122U U125G | -5.7
G10A A37U G47C U112C U131A | -0.391
G10A A41C G52A | -1.27
G10A A43U G57U U130C | -1.83
G10A A50G | 0.0587
G10A A68G U112C | -1.25
G10A A74G A91C C124G | -0.108
G10A A84U G110U | -1.93
G10A C11A A18C G42C G44A G60A C101A | -4.31
G10A C11A U14G U54C C56U U81A | -2.09
G10A C12A C102A | -2.74
G10A C12U G36U C53A | -0.13
G10A C12U G71U U112A | 1.43
G10A C13A C49G A84C | -0.63

Variant | polymerase ribozyme fitness (log ratio)
G10A C13G A27U C72U A105U | -3.22
G10A C13U G61U | -0.325
G10A C13U U14A G61U C104G | -6.29
G10A C15A C73U | -2.06
G10A C15U | -2.8
G10A C15U G17A A41U C72U A105U G120A G122A | -5.83
G10A C20G A41C G48A G69U A84G | -3.37
G10A C20U | -1.18
G10A C20U G57U G113U | -2.28
G10A C22G G57C | -2.92
G10A C28G G47U U59G | -5
G10A C40A A111C | -1.11
G10A C40U A46C U130G | -2.46
G10A C49A G93U U112G | -1.97
G10A C53A | -0.00777
G10A C53G G61A A95G | -0.503
G10A C53G G69U C88U G110U | -0.0648
G10A C70A | -1.32
G10A C70G | -2.45
G10A C70G U87A C123A | -4.27
G10A C73U U78A C79U C94A | -0.0725
G10A C80U | -0.522
G10A C97U C101U A105G U130G | -5.15
